Results reported in US20240262926A1 (published 2024).

T1: recombinant monkey TfR (r monkey TfR: Sino Biological Inc.) (cynomolgus monkey (Macaca fascicularis), UniProt Q5RDH6 89-760 (Pongo abelii entry))
T1 construct: Bought product; also called r monkey TfR-ECD (Histag); cynomolgus monkey TfR; not shown: histidine tag attached to the N-terminus
T1 chain: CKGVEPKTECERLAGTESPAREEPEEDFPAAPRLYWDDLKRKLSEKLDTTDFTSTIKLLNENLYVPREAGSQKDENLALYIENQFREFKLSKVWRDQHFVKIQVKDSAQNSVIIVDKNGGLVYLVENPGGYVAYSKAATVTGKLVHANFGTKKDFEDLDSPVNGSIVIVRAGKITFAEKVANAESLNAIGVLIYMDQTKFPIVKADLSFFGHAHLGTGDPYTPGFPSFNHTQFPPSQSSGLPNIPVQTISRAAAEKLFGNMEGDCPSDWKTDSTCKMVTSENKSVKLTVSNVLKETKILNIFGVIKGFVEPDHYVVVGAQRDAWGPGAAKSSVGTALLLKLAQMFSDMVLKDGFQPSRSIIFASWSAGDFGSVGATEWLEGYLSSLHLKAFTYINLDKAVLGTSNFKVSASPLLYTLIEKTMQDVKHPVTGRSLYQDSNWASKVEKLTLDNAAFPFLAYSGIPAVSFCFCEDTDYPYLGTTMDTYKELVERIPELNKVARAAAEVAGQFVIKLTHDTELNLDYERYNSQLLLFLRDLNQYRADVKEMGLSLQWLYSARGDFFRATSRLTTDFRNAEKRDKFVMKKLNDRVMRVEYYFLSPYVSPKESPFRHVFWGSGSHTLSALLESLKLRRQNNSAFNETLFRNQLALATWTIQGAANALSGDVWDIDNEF


Assays:
[1] = molecular target: T2, recombinant human TfR (r human TfR: Sino Biological Inc.) (human, UniProt P02786 89-760); assay: BLI (Octet RED96), His-tagged TfR ECD loaded on Ni-NTA sensor, antibody as analyte
T2 construct: Bought product; also called r human TfR-ECD (Histag); hTfR; not shown: histidine tag attached to the N-terminus
Procedure: (§1) By measuring the variations of this shift between the interfering waves, determination of the number of the molecules bound to the layer of the biomolecules immobilized to the sensor tip surface and kinetic analysis of it can be performed in real time. The measurement was performed according generally to the operating manual attached to Octet RED96. As a human TfR, a recombinant human TfR (r human TfR: Sino Biological Inc.) was used, which had the amino acid sequence of the hTfR extracellular region, i.e., the cysteine residue at the position 89th from the N-terminal side to the phenylalanine at the C-terminus, of the amino acid sequence set forth as SEQ ID NO:1, with a histidine tag attached to the N-terminus. As a monkey TfR, a recombinant monkey TfR (r monkey TfR: Sino Biological Inc.) was used, which had the amino acid sequence of the cynomolgus monkey TfR extracellular region, i.e., the cysteine residue at the position 89th from the N-terminal side to the phenylalanine at the C-terminus, of the amino acid sequence set forth as SEQ ID NO:2, with a histidine tag attached to the N-terminus.
(§2) Each of the antibodies (anti-hTfR antibody Nos. 1 to 14) purified above was subjected to 2-fold dilution steps with HBS-P+(10 mM HEPES containing 150 mM NaCl, 50 μM EDTA and 0.05% Surfactant P20) to prepare antibody solutions of 7 different concentrations, 0.78125 to 50 nM (0.117 to 7.5 μg/mL). These antibody solutions were used as the sample solutions. The r human and r monkey TfRs were respectively diluted with HBS-P+ to prepare 25 μg/mL solutions, which were used as r human TfR-ECD (Histag) solution and r monkey TfR-ECD (Histag) solution, respectively.
(§3) Each of the sample solutions prepared above by 2-fold dilution steps was added, 200 μL/well, to a 96-well plate, black (Greiner Bio-One Inc.). Each of the r human TfR-ECD (Histag) solution and the r monkey TfR-ECD (Histag) solutions prepared above was added, 200 μL/well, to predetermined wells. To respective wells for baseline, dissociation and washing were added HBS-P+, 200 μL/well. To wells for regeneration were added 10 mM Glycine-HCl, pH 1.7, 200 μL/well. To wells for activation was added 0.5 mM NiCl₂ solution, 200 μL/well. The plate and biosensor (Biosensor/Ni-NTA: ForteBio Inc., a division of Pall Corporation) were set in the prescribed positions of Octet RED96.

[2] = molecular target: T1, recombinant monkey TfR (r monkey TfR: …); assay: as above
Procedure: as §1, §2, §3

Row | Kd [1] [nM] | koff [1] [s⁻¹] | kon [1] [M⁻¹ s⁻¹] | Kd [2] [nM] | koff [2] [s⁻¹] | kon [2] [M⁻¹ s⁻¹] | Binder
1 | 0.00509 | 2.55e-06 | 500000 | < 0.001 | < 1e-07 | 280000 | anti-hTfR antibody No. 1 (antibody, V domains shown, Mouse hybridoma antibody purified on Protein G; also called mouse anti-hTfR antibody No. 1; product of Clone 1 line) VH: EVQLQESGGGLVQPGGSLKLSCAASGLTFSNYGMSWIRQTPDKRLELVANINTNGGSTYYPDSVKGRFTISRDNAKNTLYLQMNSLKSEDTAIYYCTNNRYDEDYWGQGTSVTVSS VL: DIVLTQSSKFMSTSVGDRVSITCKASQDVNSAVAWFQQKPGQSPKLLIYWTSTRHTGVPDRFTGSGSGTVYTLTISSVQAEDLALYYCQQHYSTPRTFGGGTKLEIKR
2 | 0.0112 | 1.23e-05 | 1.11e+06 |  |  |  | anti-hTfR antibody No. 2 (antibody, V domains shown, Mouse hybridoma antibody purified on Protein G; also called mouse anti-hTfR antibody No. 2; product of Clone 2 line) VH: EVQLQESGAELVRPGVSVKISCKGSGYTFTDYVMHWVRQSHAKSLEWIGVISTYYGHGSYNQRFKGKATMTVDKSSSTAYLELVRLTSEDSAIYYCVRGGYGSSSLAGNFDVWGAGTTVTVSS VL: DIVLTQSPATLSVTPGDSVSLSCRASQSISNNLQWYQQKSHESPRLLIKYASQSISGIPSRFSGSGSGTDFTLSINSVETEDFGMYFCQQSNSWPRTFGAGTKLELKR
3 | 0.12 | 0.000229 | 1.91e+06 | 0.161 | 0.000121 | 754000 | anti-hTfR antibody No. 4 (antibody, V domains shown, Mouse hybridoma antibody purified on Protein G; also called mouse anti-hTfR antibody No. 4; product of Clone 4 line) VH: EVQLQESGAELVRPGTSVRVFCKASGYAFTNYLIEWVKQRPGQGLEWIGLINPGSGGIIYNEKFTDRATLTADKSSSTAYMQLSSLTSDDSAVYFCARSNYYGTTYWHFDVWGAGTTVTVSS VL: DIVLTQTPAIMSASPGEKVTMTCSASSNVNYMHWYQQKSSTSPKLWIYDTSKLASGVPGRFSGSGSGNSYSLTISSMEAEDVATYYCFQGNGNPYTFGGGTKLEIK
4 | 0.0837 | 2.28e-05 | 272000 | 3.38 | 0.000421 | 124000 | anti-hTfR antibody No. 11 (antibody, V domains shown, Mouse hybridoma antibody purified on Protein G; also called mouse anti-hTfR antibody No. 11; product of Clone 11 line) VH: EVQLQESGAELVRPGSSVKISCKASGYAFSIYWINWLKQRPGQGLEWIGQIYPGNGDTNYNGKFKGKATLTADKSSNTVYMRLSSLTSEDSAVYFCGRWGDDYAMDFWGQGTSVTVSS VL: DIVLTQSPATLSVTPGDRVSLSCRASQSIRNYLHWYQQKSHESPRLLIKYASQSISGIPSRFSGSGSGTDFTLSINSVETEDFGMYFCQQTNSWPYTFGGGTKLEIK
5 | < 0.001 | < 1e-07 | 835000 | 0.123 | 7.29e-05 | 591000 | anti-hTfR antibody No. 13 (antibody, V domains shown, Mouse hybridoma antibody purified on Protein G; also called mouse anti-hTfR antibody No. 13; product of Clone 13 line) VH: EVQLQESGAELVRPGSSVKISCKASGYAFSIYWINWLKQRPGQGLEWIGQIYPGNGDTNYNGKFKGKATLTADKSSNTVYMRLSSLTSEDSAVYFCGRWGDDYAMDFWGQGTSVTVSS VL: DIVITQTPATLSVTPGDRVSLSCRASQSIRNYLHWYQQKSHESPRLLIKYASQSISGIPSRFSGSGSGTDFTLTINSVETEDFGMYFCQQTNSWPYTFGGGTKLEIK
6 | 0.121 | 9.46e-05 | 782000 |  |  |  | anti-hTfR antibody No. 9 (antibody, V domains shown, Mouse hybridoma antibody purified on Protein G; also called mouse anti-hTfR antibody No. 9; product of Clone 9 line) VH: EVQLQESGPELKKPGETVKISCKASGYTFTNYGVSWVKQAPGKDLKWMGWIYTFTGEATYIDDFRGRFAFSLETSANTAYLQINNLKNEDTATYFCSRRNGAWFEDWGQGTLVTVSA VL: DIVLTQSPALMSASPGETVTMTCSASSSVSLMFWYQQKPRSSPKPWIYFTSYRASGVPIRFSGSGSGTSFSLTISNLEAEDAATYYCQQWTSDPPTFGSGTKLEIE
7 | 0.432 | 0.000723 | 754000 | 0.249 | 0.000126 | 505000 | anti-hTfR antibody No. 12 (antibody, V domains shown, Mouse hybridoma antibody purified on Protein G; also called mouse anti-hTfR antibody No. 12; product of Clone 12 line) VH: EVQLQESGAELARPGTSVKVSCKAAGYVFINYLIEWVKQRPGQGLEWIGVIHSGSGGTNYNDNFKDKATLTRDVSSSTAYMQLSSLTSDDSAVYFCARRNFGNYYFDYWGQGTTLTVSS VL: DIVLTQSHKFMSTVIGDRVSITCKASHDVKTAVAWYQQTPGQSPKLLTYWSSTRHTGVPDRFTGSGSGTDYTLTISSVQAEDLALYYCQQHFSTPLTFGAGTKLELK
8 | 0.0364 | 2.44e-05 | 671000 | 1.46 | 0.000758 | 519000 | anti-hTfR antibody No. 5 (antibody, V domains shown, Mouse hybridoma antibody purified on Protein G; also called mouse anti-hTfR antibody No. 5; product of Clone 5 line) VH: EVQLQESGPELVKPGASVKMSCKASGYTFTNFVIHWVKQRPGQGLEWIGFFNPHKNGAEYNEKFQVKATLTSDKSSTTAYMELNSLTSEDSAVYYCARSFYYYSMDYWGQGTSVTVSS VL: DIVMTQTPAIMSASPGEKVTMTCSASSSISSIHWYQQKPGTSPKRWIYDTSTLASGVPVRFSGSGSGTSYSLTISSMEAEDAATYYCHQRSSYPTFGGGTKLEIK
9 | 0.958 | 0.000723 | 754000 | 0.123 | 0.000236 | 495000 | anti-hTfR antibody No. 6 (antibody, V domains shown, Mouse hybridoma antibody purified on Protein G; also called mouse anti-hTfR antibody No. 6; product of Clone 6 line) VH: EVQLQESGPGLVAPSQSLSITCSVSGFSLSTYGVYWVRQPPGKGLEWLGIIWGDGSTNYHSALISRLTISKDNSKSQVFLKLNSLQTADTATYYCAKPDDVWGAGTTVTVSS VL: DIVLTQTPSSLSASLGERVSLTCRASQEISGYLSWLQQKPDGTIKRLIYAASTLDSGVPKRFSGSRSGSDYSLTISSLESEDFADYYCLQYSSYPRTFGGGTKLEIK
10 | 1.13 | 0.000766 | 679000 | 31.6 | 0.0122 | 387000 | anti-hTfR antibody No. 10 (antibody, V domains shown, Mouse hybridoma antibody purified on Protein G; also called mouse anti-hTfR antibody No. 10; product of Clone 10 line) VH: EVQLQESGGGLVKPGGSLKLSCEASGITFRNYAMSWVRQTPEKRLEWVATISSYGGYTYYADSVKGRFTVSRDNAGNTLYLQMSSLRSEDTAMYHCARQEVPYPYPMDNWGQGTSVIVSS VL: DIVMTQTPSSLSASLGERVSLTCRPSQEISGYLSWLQQKPDGTIKRLIYAASTLDSGVPKRFSGSRSGSDYSLTISSLESEDFADYYCLQYASYPRTFGGGTKLEIK
11 | 0.0822 | 3.03e-05 | 369000 | 0.0171 | 4.54e-06 | 266000 | anti-hTfR antibody No. 7 (antibody, V domains shown, Mouse hybridoma antibody purified on Protein G; also called mouse anti-hTfR antibody No. 7; product of Clone 7 line) VH: EVQLQESGGALVKPGGSLKVSCEASGITFRNYFMSWVRQTPEKRLEWVATISSAGGYTYYADSVKGRFTISRDNAGNTLYLQMSSLRSEDTAMYFCARQEVPYPYAMDYWGQGTSVIVSS VL: DIVLTQSPVIMSASLGEEITLTCSASSSVNYIHWYQQKSGTSPKVLIYQTSNLASGVPSRFSGSRSGTFYSLKISSVEAEDAADYYCHQWSSYPWTFGGGTKLEIK
12 | < 0.001 | < 1e-07 | 696000 | 9.18 | 0.00507 | 552000 | anti-hTfR antibody No. 8 (antibody, V domains shown, Mouse hybridoma antibody purified on Protein G; also called mouse anti-hTfR antibody No. 8; product of Clone 8 line) VH: EVQLQESGPGLVAPSQSLSITCTVSGFSLTTYGVSWIRQPPGKGLEWLGIIWGDGSTNYRSALISRLSISKDNSKNQVFLKLNSLQTDDTATYYCAKPDDYWGQGTSVTVSS VL: DIVLTQSPAIMSASLGEEITLTCSASSSVSYMHWYQQKSGTSPKVLIYGTSNLASEVPSRFSGSGSGTFYSLTISSVEAEDAADYYCHQWSSYPWTFGGGTKLEIK
